Numbered stars: 1 amine (or outer) side, 2 acyl side, 3 side chain; on linkers, the order of the positions; unused ones are H or OH. Square brackets hold non-standard residues; d marks the D form. Side chains are listed from the residue outwards. Ends that are not written are not given here. * marks the point of attachment. C18 diacid = O=C(O)CCCCCCCCCCCCCCCCC(=O)*; γGlu = O=C(O)[C@H](CCC(=O)[*:2])N[*:1]; AEEA = NCCOCCOCC(=O)O
B1: N^ε24-([2-[2-[2-[[2-[2-[2-[[(4S)-5-hydroxy-4-[(18-hydroxy-18-oxooctadecanoyl)amino]-5-oxopentanoyl]amino]ethoxy]ethoxy]acetyl]amino]ethoxy]ethoxy]acetyl])[Glu^2 … (peptide)
peptide: HSQGTFTSDYSKYLDSRRAQEFVK([AEEA-AEEA-γGlu-C18 diacid])RLLNT-NH2
modifications: N-terminus assumed
SMILES: CC(C)C[C@H](NC(=O)[C@H](Cc1ccc(O)cc1)NC(=O)[C@H](CCCCN)NC(=O)[C@H](CO)NC(=O)[C@H](Cc1ccc(O)cc1)NC(=O)[C@H](CC(=O)O)NC(=O)[C@H](CO)NC(=O)[C@@H](NC(=O)[C@H](Cc1ccccc1)NC(=O)[C@@H](NC(=O)CNC(=O)[C@H](CCC(N)=O)NC(=O)[C@H](CO)NC(=O)[C@@H](N)Cc1c[nH]cn1)[C@@H](C)O)[C@@H](C)O)C(=O)N[C@@H](CC(=O)O)C(=O)N[C@@H](CO)C(=O)N[C@@H](CCCNC(=N)N)C(=O)N[C@@H](CCCNC(=N)N)C(=O)N[C@@H](C)C(=O)N[C@@H](CCC(N)=O)C(=O)N[C@@H](CCC(=O)O)C(=O)N[C@@H](Cc1ccccc1)C(=O)N[C@H](C(=O)N[C@@H](CCCCNC(=O)COCCOCCNC(=O)COCCOCCNC(=O)CC[C@H](NC(=O)CCCCCCCCCCCCCCCCC(=O)O)C(=O)O)C(=O)N[C@@H](CCCNC(=N)N)C(=O)N[C@@H](CC(C)C)C(=O)N[C@@H](CC(C)C)C(=O)N[C@@H](CC(N)=O)C(=O)N[C@H](C(N)=O)[C@@H](C)O)C(C)C
B2: (N^ε24-([2-[2-[2-[[2-[2-[2-[[(4S)-5-hydroxy-4-[(18-hydroxy-18-oxooctadecanoyl)amino]-5-oxopentanoyl]amino]ethoxy]ethoxy]acetyl]amino]ethoxy]ethoxy]acetyl])[Gln^ … (peptide)
peptide: HSQGTFTSDYSKYLDSQRAQDFVK([AEEA-AEEA-γGlu-C18 diacid])WLVKTGP-NH2
modifications: N-terminus assumed
SMILES: CC(C)C[C@H](NC(=O)[C@H](Cc1ccc(O)cc1)NC(=O)[C@H](CCCCN)NC(=O)[C@H](CO)NC(=O)[C@H](Cc1ccc(O)cc1)NC(=O)[C@H](CC(=O)O)NC(=O)[C@H](CO)NC(=O)[C@@H](NC(=O)[C@H](Cc1ccccc1)NC(=O)[C@@H](NC(=O)CNC(=O)[C@H](CCC(N)=O)NC(=O)[C@H](CO)NC(=O)[C@@H](N)Cc1c[nH]cn1)[C@@H](C)O)[C@@H](C)O)C(=O)N[C@@H](CC(=O)O)C(=O)N[C@@H](CO)C(=O)N[C@@H](CCC(N)=O)C(=O)N[C@@H](CCCNC(=N)N)C(=O)N[C@@H](C)C(=O)N[C@@H](CCC(N)=O)C(=O)N[C@@H](CC(=O)O)C(=O)N[C@@H](Cc1ccccc1)C(=O)N[C@H](C(=O)N[C@@H](CCCCNC(=O)COCCOCCNC(=O)COCCOCCNC(=O)CC[C@H](NC(=O)CCCCCCCCCCCCCCCCC(=O)O)C(=O)O)C(=O)N[C@@H](Cc1c[nH]c2ccccc12)C(=O)N[C@@H](CC(C)C)C(=O)N[C@H](C(=O)N[C@@H](CCCCN)C(=O)N[C@H](C(=O)NCC(=O)N1CCC[C@H]1C(N)=O)[C@@H](C)O)C(C)C)C(C)C
B3: N^ε16-([2-[2-[2-[[2-[2-[2-[[(4S)-5-hydroxy-4-[(18-hydroxy-18-oxooctadecanoyl)amino]-5-oxopentanoyl]amino]ethoxy]ethoxy]acetyl]amino]ethoxy]ethoxy]acetyl])[Lys^1 … (peptide)
peptide: HSQGTFTSDYSKYLDK([AEEA-AEEA-γGlu-C18 diacid])KRAQEFVQWLLNT-NH2
modifications: N-terminus assumed
SMILES: CC(C)C[C@H](NC(=O)[C@H](Cc1ccc(O)cc1)NC(=O)[C@H](CCCCN)NC(=O)[C@H](CO)NC(=O)[C@H](Cc1ccc(O)cc1)NC(=O)[C@H](CC(=O)O)NC(=O)[C@H](CO)NC(=O)[C@@H](NC(=O)[C@H](Cc1ccccc1)NC(=O)[C@@H](NC(=O)CNC(=O)[C@H](CCC(N)=O)NC(=O)[C@H](CO)NC(=O)[C@@H](N)Cc1c[nH]cn1)[C@@H](C)O)[C@@H](C)O)C(=O)N[C@@H](CC(=O)O)C(=O)N[C@@H](CCCCNC(=O)COCCOCCNC(=O)COCCOCCNC(=O)CC[C@H](NC(=O)CCCCCCCCCCCCCCCCC(=O)O)C(=O)O)C(=O)N[C@@H](CCCCN)C(=O)N[C@@H](CCCNC(=N)N)C(=O)N[C@@H](C)C(=O)N[C@@H](CCC(N)=O)C(=O)N[C@@H](CCC(=O)O)C(=O)N[C@@H](Cc1ccccc1)C(=O)N[C@H](C(=O)N[C@@H](CCC(N)=O)C(=O)N[C@@H](Cc1c[nH]c2ccccc12)C(=O)N[C@@H](CC(C)C)C(=O)N[C@@H](CC(C)C)C(=O)N[C@@H](CC(N)=O)C(=O)N[C@H](C(N)=O)[C@@H](C)O)C(C)C
B4: N^ε24-([2-[2-[2-[[2-[2-[2-[[(4S)-5-hydroxy-4-[(18-hydroxy-18-oxooctadecanoyl)amino]-5-oxopentanoyl]amino]ethoxy]ethoxy]acetyl]amino]ethoxy]ethoxy]acetyl])[Glu^1 … (peptide)
peptide: HSQGTFTSDYSKYLDERRAQDFVK([AEEA-AEEA-γGlu-C18 diacid])WLLAT-NH2
modifications: N-terminus assumed
SMILES: CC(C)C[C@H](NC(=O)[C@H](CC(C)C)NC(=O)[C@H](Cc1c[nH]c2ccccc12)NC(=O)[C@H](CCCCNC(=O)COCCOCCNC(=O)COCCOCCNC(=O)CC[C@H](NC(=O)CCCCCCCCCCCCCCCCC(=O)O)C(=O)O)NC(=O)[C@@H](NC(=O)[C@H](Cc1ccccc1)NC(=O)[C@H](CC(=O)O)NC(=O)[C@H](CCC(N)=O)NC(=O)[C@H](C)NC(=O)[C@H](CCCNC(=N)N)NC(=O)[C@H](CCCNC(=N)N)NC(=O)[C@H](CCC(=O)O)NC(=O)[C@H](CC(=O)O)NC(=O)[C@H](CC(C)C)NC(=O)[C@H](Cc1ccc(O)cc1)NC(=O)[C@H](CCCCN)NC(=O)[C@H](CO)NC(=O)[C@H](Cc1ccc(O)cc1)NC(=O)[C@H](CC(=O)O)NC(=O)[C@H](CO)NC(=O)[C@@H](NC(=O)[C@H](Cc1ccccc1)NC(=O)[C@@H](NC(=O)CNC(=O)[C@H](CCC(N)=O)NC(=O)[C@H](CO)NC(=O)[C@@H](N)Cc1c[nH]cn1)[C@@H](C)O)[C@@H](C)O)C(C)C)C(=O)N[C@@H](C)C(=O)N[C@H](C(N)=O)[C@@H](C)O
B5: N^ε24-([2-[2-[2-[[2-[2-[2-[[(4S)-5-hydroxy-4-[(18-hydroxy-18-oxooctadecanoyl)amino]-5-oxopentanoyl]amino]ethoxy]ethoxy]acetyl]amino]ethoxy]ethoxy]acetyl]) … (peptide)
peptide: H[dS]QGTFTSDYSKYLAEQRARDFVK([AEEA-AEEA-γGlu-C18 diacid])WLLNT-NH2
modifications: N-terminus assumed
SMILES: CC(C)C[C@H](NC(=O)[C@H](Cc1ccc(O)cc1)NC(=O)[C@H](CCCCN)NC(=O)[C@H](CO)NC(=O)[C@H](Cc1ccc(O)cc1)NC(=O)[C@H](CC(=O)O)NC(=O)[C@H](CO)NC(=O)[C@@H](NC(=O)[C@H](Cc1ccccc1)NC(=O)[C@@H](NC(=O)CNC(=O)[C@H](CCC(N)=O)NC(=O)[C@@H](CO)NC(=O)[C@@H](N)Cc1c[nH]cn1)[C@@H](C)O)[C@@H](C)O)C(=O)N[C@@H](C)C(=O)N[C@@H](CCC(=O)O)C(=O)N[C@@H](CCC(N)=O)C(=O)N[C@@H](CCCNC(=N)N)C(=O)N[C@@H](C)C(=O)N[C@@H](CCCNC(=N)N)C(=O)N[C@@H](CC(=O)O)C(=O)N[C@@H](Cc1ccccc1)C(=O)N[C@H](C(=O)N[C@@H](CCCCNC(=O)COCCOCCNC(=O)COCCOCCNC(=O)CC[C@H](NC(=O)CCCCCCCCCCCCCCCCC(=O)O)C(=O)O)C(=O)N[C@@H](Cc1c[nH]c2ccccc12)C(=O)N[C@@H](CC(C)C)C(=O)N[C@@H](CC(C)C)C(=O)N[C@@H](CC(N)=O)C(=O)N[C@H](C(N)=O)[C@@H](C)O)C(C)C

Target: glucagon receptor (UniProt P47871 26-477, limits assumed)
Experiment: cell-based or functional assay

Sequence of glucagon receptor (P47871 26-477 limits assumed): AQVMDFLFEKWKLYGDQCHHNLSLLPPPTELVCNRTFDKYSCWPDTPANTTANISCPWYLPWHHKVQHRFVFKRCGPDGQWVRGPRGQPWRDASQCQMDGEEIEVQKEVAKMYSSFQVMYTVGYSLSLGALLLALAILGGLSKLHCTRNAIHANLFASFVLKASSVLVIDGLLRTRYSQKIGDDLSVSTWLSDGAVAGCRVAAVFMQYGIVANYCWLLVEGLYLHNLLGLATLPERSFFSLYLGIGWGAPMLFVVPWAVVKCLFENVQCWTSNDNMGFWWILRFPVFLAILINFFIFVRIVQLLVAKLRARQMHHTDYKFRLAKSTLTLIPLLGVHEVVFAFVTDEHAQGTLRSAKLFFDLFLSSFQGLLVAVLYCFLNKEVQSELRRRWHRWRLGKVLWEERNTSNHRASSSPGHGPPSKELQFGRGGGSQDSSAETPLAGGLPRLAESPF

Going from B1 to B2, the “Assay (I) Glucagon [EC50]” value rises from 0.043 nM to 0.942 nM (22-fold).

B3 and B4 are within 1.5-fold of each other in “Assay (I) Glucagon [EC50]” value: 0.018 nM for the first, 0.0235 nM for the second.

For B5, the “Assay (I) Glucagon [EC50]” value was 0.137 nM.
